Assay results taken from patent publication US20200308301A1 (Novartis, published 2020).
Positions count from the first letter of the chain named.

B1: IDT6 (Fab, V domains shown)
VH: QVQLVQSGAEVKKPGESLKISCKGSGYSFTNYWIGWVRQMPGKGLEWMGIIFPGVSYTKYSPSFQGQVTISADKSISTAYLQWSSLKASDTAMYYCARGSDQTLRGSRAMDYWGQGTLVTVSS
VL: QSALTQPASVSGSPGQSITISCTGTSSDVGISNYVSWYQQHPGKAPKLMIYEVSNRPSGVSNRFSGSKSGNTASLTISGLQAEDEADYYCQSYTSLNYVFGGGTKLTVLG
notes: Fab with a lambda light chain; also called anti-NOV1401 Fab IDT6
B2: IDT11 (antibody, human IgG1, kappa, V domains shown)
VH: QVQLLESGGGLVQPGGSLRLSCAASGFTFSDYAMSWVRQAPGKGLEWVSVIDYSSSNTYYADSVKGRFTISRDNSKNTLYLQMNSLRAEDTAVYYCAREGYSYRSIRFDYWGQGTLVTVSS
VL: DIQMTQSPSSLSASVGDRVTITCRASQSISSNLNWYQQKPGKAPKLLIYAASNLQSGVPSRFSGSGSGTDFTLTISSLQPEDFATYYCLQFDHTPFTFGQGTKVEIKR
notes: also called anti-NOV1401 IgG IDT11; full length IgG format for IDT1
B3: IDT2 (Fab, V domains shown)
VH: QVQLVESGGGLVKPGGSLRLSCAASGFTFSSAAVHWVRQAPGKGLEWVGRIKSKADGGTTDYAAPVKGRFTISRDDSKNTLYLQMNSLKTEDTAVYYCARDSPSISSYSIPYFSGMDVWGQGTLVTVSS
VL: DIQMTQSPSSLSASVGDRVTITCRASQGIRAWLNWYQQKPGKAPKLLIYAASSLQSGVPSRFSGSGSGTDFTLTISSLQPEDFATYYCHQYITHPPTFGQGTKVEIKR
notes: Fab; also called anti-NOV1401 Fab IDT2
B4: IDT9 (Fab, V domains shown)
VH: QVQLVQSGAEVKKPGASVKVSCKASGYTFTNYYVHWVRQAPGQGLEWMGWINPYNGNTNYAQKFQGRVTMTRDTSISTAYMELSRLRSEDTAVYYCARGASSIRMSYYLDVWGQGTLVTVSS
VL: B2 VL with S31N, N32Y, L89F, F91Y, D92T, T94S, F96A
notes: Fab; also called anti-NOV1401 Fab IDT9
B5: IDT12 (antibody, human IgG1, kappa, V domains shown)
VH: B3 VH
VL: B3 VL
notes: also called anti-NOV1401 IgG IDT12; full length IgG format for IDT2
B6: IDT7 (Fab, V domains shown)
VH: QVQLVESGGGLVKPGGSLRLSCAASGFTFSSNAMHWVRQAPGKGLEWVGRIKSKTDGGTTDYAAPVKGRFTISRDDSKNTLYLQMNSLKTEDTAVYYCARDHYYYPFAYWGQGTLVTVSS
VL: B3 VL with G28S, A31Y, W32N, N34A, T93A, H94K, P96I
notes: Fab; also called anti-NOV1401 Fab IDT7
B7: IDT4 (Fab, V domains shown)
VH: B3 VH with D56S
VL: B3 VL
notes: Fab; also called anti-NOV1401 Fab IDT4
B8: IDT5 (Fab, V domains shown)
VH: B3 VH with G57A
VL: B3 VL
notes: Fab; also called anti-NOV1401 Fab IDT5
B9: IDT10 (Fab, V domains shown)
VH: B4 VH with N55S
VL: B2 VL with S31N, N32Y, L89F, F91Y, D92T, T94S, F96A
notes: Fab; also called anti-NOV1401 Fab IDT10
B10: IDT8 (Fab, V domains shown)
VH: B6 VH with D56S
VL: B3 VL with G28S, A31Y, W32N, N34A, T93A, H94K, P96I
notes: Fab; also called anti-NOV1401 Fab IDT8
B11: IDT3 (Fab, V domains shown)
VH: B3 VH with S30Q
VL: B3 VL
notes: Fab; also called anti-NOV1401 Fab IDT3

What was measured:
NOV1401 [1] = experiment: cell-based or functional assay
NOV1401 [2] = target: T1, NOV1401; experiment: SPR (ProteOn XPR36), NOV1401 immobilized, Fab as analyte, 1:1 Langmuir fit, average
T1 construct: It was amine-coupled to the chip in SPR, and used soluble and biotinylated in SET; also called anti-FXI/FXIa antibody NOV1401; anti-Factor XI/FXIa antibody NOV1401
Protocol: SPR binding experiments were performed on a ProteOn XPR36 instrument (Bio-Rad Laboratories, Inc.) in PBS/T buffer (50 mM phosphate, 150 mM NaCl, pH 7.4, 0.005% v/v Tween-20) at 25° C. NOV1401 (‘Ligand’) was immobilized onto an activated ProteOn GLC sensor chip (Bio-Rad Laboratories, Inc.) using standard amine coupling procedures as described by the manufacturer. Briefly, NOV1401 was injected at a concentration of 10 μg/ml in 20 mM sodium acetate, pH 5.0 and at a flow rate of 30 μl/min for 10 min. Unreacted groups were blocked by injecting 1 M ethanolamine.
For kinetic studies anti-NOV1401 Fabs (‘Analytes’) were diluted in PBS/T buffer to generate a dilution series with concentrations ranging from 0.125-4 nM. Fabs were injected onto surfaces with immobilized NOV1401 at a flow rate of 100 μL/min and sensorgrams were recorded for association and dissociation times of 220 s and 1800 s, respectively. Blank surfaces were used for background corrections. There was no need to regenerate surfaces since the ProteOn protein interaction array system allows to run up to six binding experiments on an identical surface in parallel.
Data processing and analysis including kon, koff, and KD determination were performed with the ProteOn Manager™ software version 3.1.0.6.

NOV1401 [3] = target: T1, NOV1401; experiment: cell-based or functional assay; remark: listed apart in the source
NOV1401 [4] = target: T1, NOV1401; experiment: Solution equilibrium titration (SET), IgG, 1:1 fit, average
Protocol: (§1) 14 serial (2×) dilutions of NOV1401 were prepared in sample buffer (PBS pH 7.4 containing 0.5% (w/v) BSA and 0.02% Tween 20) and a constant concentration of the anti-NOV1401 Fab or IgG was added to each NOV1401 concentration ranging from 40 pM to 240 pM. Optimal constant anti-NOV1401 Fab or IgG concentrations and optimal starting concentrations for NOV1401 dilution series were determined in pilot experiments.
(§2) After incubation and three times washing with PBST (PBS containing 0.05% Tween 20) 30 μl/well of the NOV1401/anti-NOV1401 Fab or IgG preparation was transferred from the polypropylene MTP to the NOV1401-coated SA plate and incubated for 30 min at RT on a MTP shaker. After three additional wash steps, 30 μl of 0.5 μg/ml detection antibody (Goat anti-human Kappa LC-HRP, BETHYL # A80-115P) diluted in sample buffer was added to each well and incubated for 1 h at RT with shaking. […] Electrochemiluminescence (ECL) signals were generated and detected immediately with a luminescence imager (SpectraMax M5, Molecular Devices, LLC).
(§3) Average ECL-signals were calculated from duplicate measurements within each assay. […] KD values were determined by fitting the plot with the following non-linear curve fitting model for 1:1 binding according to Haenel et al 2005: […]
Target sequence in this assay (VL, as listed by the source): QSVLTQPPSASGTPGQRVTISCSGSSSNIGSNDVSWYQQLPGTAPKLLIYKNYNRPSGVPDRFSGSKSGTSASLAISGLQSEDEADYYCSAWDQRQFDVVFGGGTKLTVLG

NOV1401 [5] = target: T1, NOV1401; experiment: Solution equilibrium titration (SET), 1:1 fit, average
Protocol: as §1
After incubation and three times washing with PBST (PBS containing 0.05% Tween 20) 30 μl/well of the NOV1401/anti-NOV1401 Fab or IgG preparation was transferred from the polypropylene MTP to the NOV1401-coated SA plate and incubated for 30 min at RT on a MTP shaker. After three additional wash steps, 30 μl of 0.5 μg/ml detection antibody (Goat anti-human Kappa LC-HRP, BETHYL # A80-115P) diluted in sample buffer was added to each well and incubated for 1 h at RT with shaking. After washing the plate again three times, 30 μl of detection reagent (LumiGLO Peroxidase Chemiluminescent Substrate, KPL #54-61-01) was added to each well. Electrochemiluminescence (ECL) signals were generated and detected immediately with a luminescence imager (SpectraMax M5, Molecular Devices, LLC).
Average ECL-signals were calculated from duplicate measurements within each assay. Data were baseline adjusted by subtracting the lowest value from all data points and plotted against the corresponding antigen concentration. KD values were determined by fitting the plot with the following non-linear curve fitting model for 1:1 binding according to Haenel et al 2005: […]

NOV1401 [6] = target: T1, NOV1401; experiment: SET (solution equilibrium titration): constant anti-NOV1401 Fab with a NOV1401 dilution series, free Fab captured on a biotinylated-NOV1401 streptavidin plate, luminescence (RLU), 1:1 fit
Protocol: as §1, §2, §3
Target sequence in this assay (VL, as listed by the source): as above

[7] = target: T2, Human plasma-derived FXIa (human, UniProt P03951 19-625); experiment: SPR, FXIa immobilized on GLC chip
T2 construct: also called Factor XIa
T2 sequence (P03951 19-625 C226S limits assumed): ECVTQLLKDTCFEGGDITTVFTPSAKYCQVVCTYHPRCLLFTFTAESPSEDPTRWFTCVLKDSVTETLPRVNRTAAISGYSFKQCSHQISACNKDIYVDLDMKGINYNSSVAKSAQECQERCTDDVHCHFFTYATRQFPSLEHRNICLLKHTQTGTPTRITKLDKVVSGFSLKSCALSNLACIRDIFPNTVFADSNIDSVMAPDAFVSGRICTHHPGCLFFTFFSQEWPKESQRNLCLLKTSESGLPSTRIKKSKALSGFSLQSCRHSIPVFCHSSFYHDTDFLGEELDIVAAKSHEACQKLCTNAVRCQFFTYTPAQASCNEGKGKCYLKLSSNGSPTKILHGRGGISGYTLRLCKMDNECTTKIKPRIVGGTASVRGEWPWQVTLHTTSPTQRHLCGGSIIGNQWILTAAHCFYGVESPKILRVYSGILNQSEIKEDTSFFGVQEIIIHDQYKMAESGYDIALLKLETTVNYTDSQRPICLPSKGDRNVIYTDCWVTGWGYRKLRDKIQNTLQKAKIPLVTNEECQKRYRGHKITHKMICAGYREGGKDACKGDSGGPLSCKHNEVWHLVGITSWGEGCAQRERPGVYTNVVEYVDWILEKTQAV
Protocol: SPR experiments were performed in principle as described in Example 2 with the following changes. Human plasma-derived FXIa was used as ligand and immobilized on an activated ProteOn GLC sensor chip (Bio-Rad Laboratories, Inc.) using standard amine coupling procedures as described and by injecting FXIa at a concentration of 10 μg/ml in 20 mM sodium acetate, pH 5.0 and at a flow rate of 30 μl/min for 10 min.
For binding competition studies NOV1401 and three mixture of NOV1401 with anti-NOV1401 Fab at molar ratios of 1:1, 1:2, and 1:10 were prepared in PBS/T buffer and injected in simultaneously onto surfaces with immobilized FXI at a flow rate of 100 μL/min. Sensorgrams were recorded for association and dissociation times of 220 s and 1800 s, respectively. Blank surfaces were used for background corrections.

| Binder | aPTT percentage reversal, NOV1401/anti NOV1401 ratio 1/1 (n/n) (NOV1401 [1]) [%] | aPTT percentage reversal, NOV1401/anti NOV1401 ratio 1/3 (n/n) (NOV1401 [1]) [%] | aPTT percentage reversal, NOV1401/anti NOV1401 ratio 1/10 (n/n) (NOV1401 [1]) [%] | Kd (NOV1401 [2]) [nM] | TGA percentage reversal, NOV1401/anti NOV1401 ratio 1/1 (n/n) (NOV1401 [3]) [%] | TGA percentage reversal, NOV1401/anti NOV1401 ratio 1/3 (n/n) (NOV1401 [3]) [%] | TGA percentage reversal, NOV1401/anti NOV1401 ratio 1/10 (n/n) (NOV1401 [3]) [%] | Kd (NOV1401 [4]) [nM] | Kd (NOV1401 [5]) [nM] | Kd (NOV1401 [6]) [nM] | binding result [7] |
| --- | --- | --- | --- | --- | --- | --- | --- | --- | --- | --- | --- |
| B1 | 9 | 22 | 38 | 10.1 | 18 | 41 | 37 | – | – | – | – |
| B2 | 19 | 55 | 57 | – | 50 | 59 | 67 | 0.0007 | – | – | – |
| B3 | 21 | 42 | 55 | 0.23 | 55 | 57 | 61 | – | 0.1 | – | – |
| B4 | 10 | 25 | 46 | 1.92 | 41 | 61 | 72 | – | 0.68 | – | – |
| B5 | 9 | 51 | 61 | – | 60 | 64 | 62 | 0.0051 | – | – | – |
| B6 | 16 | 37 | 54 | 0.33 | 50 | 66 | 71 | – | 0.96 | 0.16 | – |
| B7 | 10 | 27 | 39 | 0.31 | 33 | 53 | 60 | – | 0.97 | – | – |
| B8 | 17 | 42 | 56 | 0.35 | 55 | 56 | 72 | – | 0.14 | – | – |
| B9 | 12 | 25 | 40 | 5.97 | 37 | 45 | 57 | – | 1.19 | – | – |
| B10 | 8 | 25 | 42 | 2.15 | 41 | 56 | 69 | – | 0.16 | 0.96 | – |
| B11 | 9 | 35 | 58 | 0.24 | 31 | 47 | 67 | – | 0.1 | – | no binding |
